T1: Human CD73 on cells (MDA-MB-231, Jurkat CD73 knock-in, NCI-H322) (human, UniProt P21589 27-549)
T1 construct: GPI-anchored native protein; also called native human CD73
T1 sequence: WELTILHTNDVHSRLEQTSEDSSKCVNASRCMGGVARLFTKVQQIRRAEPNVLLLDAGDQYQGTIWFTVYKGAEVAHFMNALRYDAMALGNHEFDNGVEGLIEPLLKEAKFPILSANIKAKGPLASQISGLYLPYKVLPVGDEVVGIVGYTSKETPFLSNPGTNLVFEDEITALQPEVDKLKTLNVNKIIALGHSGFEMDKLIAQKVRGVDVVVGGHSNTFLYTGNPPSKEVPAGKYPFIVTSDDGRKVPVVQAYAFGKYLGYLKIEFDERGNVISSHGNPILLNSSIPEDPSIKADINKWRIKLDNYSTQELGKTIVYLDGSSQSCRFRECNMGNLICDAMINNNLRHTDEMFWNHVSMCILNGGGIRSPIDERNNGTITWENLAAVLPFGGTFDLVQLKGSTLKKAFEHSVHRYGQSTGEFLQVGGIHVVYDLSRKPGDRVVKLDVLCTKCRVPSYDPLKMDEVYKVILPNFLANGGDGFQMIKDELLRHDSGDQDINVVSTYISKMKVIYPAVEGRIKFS

T2: Cynomolgus CD73 on MK-1 cells (cynomolgus, UniProt A0A2K5V5U7 27-549)
T2 construct: whole, on cells; also called MK-1 (cyno)
T2 sequence: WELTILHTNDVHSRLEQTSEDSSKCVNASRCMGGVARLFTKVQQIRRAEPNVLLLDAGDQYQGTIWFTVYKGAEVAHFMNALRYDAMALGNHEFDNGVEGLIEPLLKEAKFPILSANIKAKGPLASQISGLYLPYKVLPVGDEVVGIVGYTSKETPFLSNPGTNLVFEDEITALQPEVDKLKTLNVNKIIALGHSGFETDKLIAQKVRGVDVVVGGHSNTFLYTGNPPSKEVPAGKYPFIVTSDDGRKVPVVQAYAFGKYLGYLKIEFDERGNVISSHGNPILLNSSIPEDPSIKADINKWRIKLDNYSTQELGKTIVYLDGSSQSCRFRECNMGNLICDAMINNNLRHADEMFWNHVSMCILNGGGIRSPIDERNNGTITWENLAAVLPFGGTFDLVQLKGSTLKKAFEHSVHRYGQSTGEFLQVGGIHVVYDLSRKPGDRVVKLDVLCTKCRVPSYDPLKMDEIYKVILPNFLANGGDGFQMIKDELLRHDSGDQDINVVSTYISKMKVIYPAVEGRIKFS

T3: Murine CD73 on cells (4T1, Jurkat mCD73 knock-in) (murine, UniProt Q61503 29-551)
T3 construct: whole, on cells; also called 4T1 (murine)
T3 sequence (looked up): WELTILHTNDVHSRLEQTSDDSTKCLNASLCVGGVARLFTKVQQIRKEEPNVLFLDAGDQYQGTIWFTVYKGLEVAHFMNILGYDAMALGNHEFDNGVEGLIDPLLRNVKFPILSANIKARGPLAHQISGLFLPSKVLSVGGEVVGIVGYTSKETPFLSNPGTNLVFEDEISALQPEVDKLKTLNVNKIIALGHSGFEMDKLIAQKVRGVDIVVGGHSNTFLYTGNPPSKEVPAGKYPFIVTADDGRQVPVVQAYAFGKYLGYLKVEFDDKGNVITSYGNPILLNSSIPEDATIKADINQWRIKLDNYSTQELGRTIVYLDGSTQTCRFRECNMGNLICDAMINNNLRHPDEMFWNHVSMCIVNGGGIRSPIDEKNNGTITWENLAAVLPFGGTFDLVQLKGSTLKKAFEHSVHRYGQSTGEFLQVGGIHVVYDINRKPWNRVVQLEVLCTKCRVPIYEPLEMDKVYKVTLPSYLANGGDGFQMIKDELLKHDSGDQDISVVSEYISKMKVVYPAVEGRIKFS

T4: Human CD73 ECD (human, UniProt P21589 27-549)
T4 construct: Biotinylated in some assays; also called human CD73 extracellular domain; huCD73
T4 sequence: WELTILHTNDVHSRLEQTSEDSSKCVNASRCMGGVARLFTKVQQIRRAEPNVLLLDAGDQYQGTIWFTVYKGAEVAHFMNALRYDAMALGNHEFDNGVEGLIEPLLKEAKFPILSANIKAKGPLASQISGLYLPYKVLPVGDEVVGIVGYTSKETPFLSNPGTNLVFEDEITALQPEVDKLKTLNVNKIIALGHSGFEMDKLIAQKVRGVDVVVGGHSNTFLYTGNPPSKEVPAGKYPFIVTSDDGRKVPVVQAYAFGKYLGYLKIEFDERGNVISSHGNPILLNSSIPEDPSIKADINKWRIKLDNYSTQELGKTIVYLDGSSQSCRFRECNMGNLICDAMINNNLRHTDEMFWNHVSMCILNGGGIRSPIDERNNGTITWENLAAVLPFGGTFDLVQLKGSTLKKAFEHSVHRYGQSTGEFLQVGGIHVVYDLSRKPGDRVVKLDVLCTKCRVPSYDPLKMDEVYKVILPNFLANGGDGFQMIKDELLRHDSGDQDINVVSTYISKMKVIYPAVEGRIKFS

T5: Murine CD73 ECD (murine, UniProt Q61503 29-551, limits assumed)
T5 construct: extracellular domain; In-house recombinant ECD; also called murine CD73 extracellular domain; muCD73
T5 sequence (looked up): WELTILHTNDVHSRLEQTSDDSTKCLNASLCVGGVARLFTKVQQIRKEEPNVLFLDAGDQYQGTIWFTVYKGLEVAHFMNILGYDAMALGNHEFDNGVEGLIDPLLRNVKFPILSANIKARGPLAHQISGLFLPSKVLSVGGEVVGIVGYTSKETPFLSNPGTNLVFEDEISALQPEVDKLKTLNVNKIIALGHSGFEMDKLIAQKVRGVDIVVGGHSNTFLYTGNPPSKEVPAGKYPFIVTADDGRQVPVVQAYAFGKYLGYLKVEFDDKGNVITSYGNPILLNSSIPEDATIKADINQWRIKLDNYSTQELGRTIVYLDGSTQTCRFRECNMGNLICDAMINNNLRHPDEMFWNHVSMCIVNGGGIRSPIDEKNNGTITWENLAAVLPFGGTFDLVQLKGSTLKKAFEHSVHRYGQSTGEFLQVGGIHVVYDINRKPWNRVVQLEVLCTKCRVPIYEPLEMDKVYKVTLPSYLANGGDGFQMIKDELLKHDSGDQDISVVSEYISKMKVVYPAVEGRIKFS

T6: Cynomolgus CD73 ECD (cynomolgus, UniProt A0A2K5V5U7 27-549)
T6 construct: extracellular domain; also called cyno CD73
T6 sequence: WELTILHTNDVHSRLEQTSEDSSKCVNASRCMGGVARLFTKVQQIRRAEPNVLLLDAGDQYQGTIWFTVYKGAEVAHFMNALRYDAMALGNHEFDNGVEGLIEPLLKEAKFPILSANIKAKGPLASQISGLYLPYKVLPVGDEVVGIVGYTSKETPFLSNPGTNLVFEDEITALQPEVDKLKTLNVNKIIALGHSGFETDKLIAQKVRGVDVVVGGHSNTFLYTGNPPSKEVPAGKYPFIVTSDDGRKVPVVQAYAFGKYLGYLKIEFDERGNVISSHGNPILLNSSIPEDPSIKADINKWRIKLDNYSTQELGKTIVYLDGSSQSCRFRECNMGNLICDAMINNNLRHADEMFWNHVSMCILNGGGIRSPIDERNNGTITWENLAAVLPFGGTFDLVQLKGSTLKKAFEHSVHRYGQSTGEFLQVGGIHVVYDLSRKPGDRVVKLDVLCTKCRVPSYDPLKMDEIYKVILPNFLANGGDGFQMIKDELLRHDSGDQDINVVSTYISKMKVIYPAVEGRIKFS


Experiments:
[1] = target: T1, Human CD73 on cells (MDA-MB-231, Jurkat …); assay: flow cytometry on cells
[2] = target: T2, Cynomolgus CD73 on MK-1 cells; assay: flow cytometry on cells
[3] = target: T3, Murine CD73 on cells (4T1, Jurkat mCD73 …); assay: flow cytometry on cells
[4] = target: T1, Human CD73 on cells (MDA-MB-231, Jurkat …); assay: cell-based or functional assay
[5] = target: T3, Murine CD73 on cells (4T1, Jurkat mCD73 …); assay: cell-based or functional assay
[6] = target: T4, Human CD73 ECD; assay: SPR (Proteon)
[7] = target: T5, Murine CD73 ECD; assay: SPR (Proteon)
[8] = target: T6, Cynomolgus CD73 ECD; assay: SPR (Proteon)
[9] = target: T1, Human CD73 on cells (MDA-MB-231, Jurkat …); assay: cell-based or functional assay; remark: listed apart in the source
[10] = target: T5, Murine CD73 ECD; assay: binding assay, format not stated
[11] = target: T4, Human CD73 ECD; assay: cell-based or functional assay
[12] = target: T4, Human CD73 ECD; assay: binding assay, format not stated
[13] = target: T6, Cynomolgus CD73 ECD; assay: binding assay, format not stated
[14] = target: T4, Human CD73 ECD; assay: direct ELISA, normalized Fab supernatant, vs CD730010 GL9
[15] = target: T5, Murine CD73 ECD; assay: as above

Row | Binder | Kd [1] | Kd [2] | Kd [3] | Kd [6] | Kd [7] | Kd [8] | Enzyme Inhibition, MDA-MB-231, 1/EC50 (nM) [9] | Internalization, MDA-MB-231, 1/EC50 (nM) [9] | 1/EC50 [10] | ELISA signal, fold improvement over parental antibody [14] | ELISA signal, fold improvement over parental antibody [15] | also measured
1 | 73combo1 (C1+GRVE+HPT) (antibody, V domains shown, IgG1-TM format; also called 73combol; clone 10 combo1) VH: EVQLLESGGGLVQPGGSLRLSCAASGFTFSSYAYSWVRQAPGKGLEWVSAISGSGGSTYYADSVKGRFTISRDNSKNTLYLQMNSLRAEDTAVYYCARLGYGRVDEWGRGTLVTVSS VL: not shown | 0.157 nM | 0.09 nM | 0.15 nM | 0.007 nM | 0.002 nM | 0.008 nM | – | – | – | – | – | FabZAP internalization, EC50, MDA-MB-231 [4]: 0.0038 nM; FabZAP internalization, maximum toxicity, MDA-MB-231 [4]: 97%; FabZAP internalization, EC50, 4T1 [5]: 0.0331 nM; FabZAP internalization, maximum toxicity, 4T1 [5]: 97%
2 | CD730004 (antibody, V domains shown, IgG1-TM format; also called CD730004 antibody) VH: not shown VL: NFMLTQPHSVSESPGQTVTISCTRSSGSIASKYVQWYQKRPGSSPTTVIYEDTQRPSGVPDRFSGSIDISSNSASLTISGLRTEDEADYYCQSYDSTNWVFGGGTKVTVL | – | – | – | – | – | – | 0.06 nM⁻¹ | 0 nM⁻¹ | 0.00023 nM⁻¹ | – | – | –
3 | CD730008 (antibody, IgG1, V domains shown, IgG1-TM format; also called CD730008 antibody) VH: EVQLLETGGGLVQPGGSLRLSCAASGFTFSSYAMSWVRQAPGKGLEWVSAISGSGGSTYYADSVKGRFTISRDNSKNTLYLQMNSLRAEDTAVYYCARGNYGNLDHWGKGTLVTVSS VL: QSVLTQPPSVSVSPGQTASITCSGDKVGDKYASWYQQKPGQSPVLVIYQDRKRPSGIPERFSGSNSGNTATLTISGTQPMDEADYYCQAWDSSHWVFGGGTKLTVL | – | – | – | – | – | – | 0.11 nM⁻¹ | 0 nM⁻¹ | 0.00058 nM⁻¹ | – | – | Enzyme Inhibition, rCD73, 1/EC50 (nM) [11]: 0 nM⁻¹; 1/EC50 [12]: 0.0011 nM⁻¹; 1/EC50 [13]: 0.0011 nM⁻¹
4 | C1 (IgG1-TM) (antibody, V domains shown, IgG1-TM format; also called clone 10 C1) VH: EVQLLESGGGLVQPGGSLRLSCAASGFTFSSYAYSWVRQAPGKGLEWVSAISGSGGSTYYADSVKGRFTISRDNSKNTLYLQMNSLRAEDTAVYYCARLGYSTIDKWGRGTLVTVSS VL: not shown | 0.179 nM | 0.16 nM | 0.095 nM | 0.029 nM | 0.006 nM | 0.012 nM | – | – | – | – | – | –
5 | CD730010 GL9 VH M34I Fab (Fab, name in Kabat numbering, V domains shown, Bacterial Fab, normalized supernatant) VH: EVQLLESGGGLVQPGGSLRLSCAASGFTFSSYAISWVRQAPGKGLEWVSAISGSGGSTYYADSVKGRFTISRDNSKNTLYLQMNSLRAEDTAVYYCARLGYSTIDYWGRGTLVTVSS VL: not shown | – | – | – | – | – | – | – | – | – | 1.5 fold | 1.1 fold | –
6 | CD730010 GL9 VH M34Y Fab (Fab, name in Kabat numbering, V domains shown, Bacterial Fab, normalized supernatant) VH: EVQLLESGGGLVQPGGSLRLSCAASGFTFSSYAYSWVRQAPGKGLEWVSAISGSGGSTYYADSVKGRFTISRDNSKNTLYLQMNSLRAEDTAVYYCARLGYSTIDYWGRGTLVTVSS VL: not shown | – | – | – | – | – | – | – | – | – | 3.9 fold | 2.9 fold | –
